Assay results reported in article doi:10.1101/2025.11.12.688043 (bioRxiv, 2025).

Molecular target: the molecule itself
Assay: cryo-EM structure

B1: Saccharomyces cerevisiae TOK1, wild type (natural protein, UniProt P40310 1-691, looked up)
chain: MTRFMNSFAKQTLGYGNMATVEQESSAQAVDSHSNNTPKQAKGVLAEELKDALRFRDERVSIINAEPSSTLFVFWFVVSCYFPVITACLGPVANTISIACVVEKWRSLKNNSVVTNPRSNDTDVLMNQVKTVFDPPGIFAVNIISLVLGFTSNIILMLHFSKKLTYLKSQLINITGWTIAGGMLLVDVIVCSLNDMPSIYSKTIGFWFACISSGLYLVCTIILTIHFIGYKLGKYPPTFNLLPNERSIMAYTVLLSLWLIWGAGMFSGLLHITYGNALYFCTVSLLTVGLGDILPKSVGAKIMVLIFSLSGVVLMGLIVFMTRSIIQKSSGPIFFFHRVEKGRSKSWKHYMDSSKNLSEREAFDLMKCIRQTASRKQHWFSLSVTIAIFMAFWLLGALVFKFAENWSYFNCIYFCFLCLLTIGYGDYAPRTGAGRAFFVIWALGAVPLMGAILSTVGDLLFDISTSLDIKIGESFNNKVKSIVFNGRQRALSFMVNTGEIFEESDTADGDLEENTTSSQSSQISEFNDNNSEENDSGVTSPPASLQESFSSLSKASSPEGILPLEYVSSAEYALQDSGTCNLRNLQELLKAVKKLHRICLADKDYTLSFSDWSYIHKLHLRNITDIEEYTRGPEFWISPDTPLKFPLNEPHFAFMMLFKNIEELVGNLVEDEELYKVISKRKFLGEHRKTL
**Q.** How did the “stoichiometry N” value turn out when B1 was run?
**A.** The value was 2.
